Reference: article PMC6230950

Tests used:
[1] = molecular target: commercial purified human IgG1 (human); test: SPR; Biacore X100; protein A on a CM5 chip, IgG or TB-PIGS captured; human CD32a as analyte, 4000 nM to 125 nM in 2-fold dilutions; HBS-EP+; 40 uL/min, contact 90 s; steady-state affinity analysis
[2] = molecular target: commercial purified human IgG1 (human); test: SPR; Biacore X100, HBS-EP+; TB-PIGS captured on protein A coupled to a CM5 chip; FcγR as analyte, 40 μL/min; affinity of one FcγR for a single arm
[3] = molecular target: commercial purified murine IgG2a (mouse); test: SPR; Biacore X100; protein A amine-coupled on a CM5 chip, IgG or TB-PIGS captured on it; CD64 (human or mouse) as analyte, 240 nM down to 1.875 nM in 1:2 dilutions; HBS-EP+; 40 uL/min, contact 135 s, dissociation 600 s; 1:1 model, but for human TB-PIGS from wild-type plants the 'Heterogeneous antibody with aglycosylation' model (two sets of values)

human CD32a (FcγRIIa) (from UniProt P12318 34-217) (receptor)
Kd [1]: 880 nM

human CD16a (FcγRIIIa) (from UniProt P08637 17-208) (receptor)
Kd [2]: 673 nM

human CD64 (FcγRI) (from UniProt P12314 16-292) (receptor)
Kd [2]: 0.27 nM

B1: mouse CD64 (FcγRI) (receptor)
chain: EVVNATKAVITLQPPWVSIFQKENVTLWCEGPHLPGDSSTQWFINGTAVQISTPSYSIPEASFQDSGEYRCQIGSSMPSDPVQLQIHNDWLLLQASRRVLTEGEPLALRCHGWKNKLVYNVVFYRNGKSFQFSSDSEVAILKTNLSHSGIYHCSGTGRHRYTSAGVSITVKELFTTPVLRASVSSPFPEGSLVTLNCETNLLLQRPGLQLHFSFYVGSKILEYRNTSSEYHIARAEREDAGFYWCEVATEDSSVLKRSPELELQVLGPQSSAP
Kd [3]: 4.8 nM
koff [3]: 0.0105 s⁻¹
kon [3]: 2.18e+06 M⁻¹ s⁻¹
